Assay [1] has as its target HLA-A2 (human). The experiment in a line: T2 bioassay (peptide 50 µg/ml + b2m 3 µg/ml, overnight), flow cytometry, stained with anti-HLA-A2 MAb. On the technique in general: Flow cytometry measures light scatter and fluorescence of single cells or particles in a stream.
Assay [2] concerns the target HLA-A2 (human). The assay can be described thus: T2 bioassay (peptide 50 µg/ml + b2m 3 µg/ml, overnight), flow cytometry, stained with pan class I MAb W6/32.
For assay [3], the target named is ras p21 proteins of the Calu-1 lung carcinoma cell line (K-ras Cys12 mutation) (human) (UniProt P01116). The assay can be described thus: cell-based or functional assay.
Assay [4] has as its target HLA-A2 (human). The assay can be described thus: T2 bioassay, isotype-matched control MAb staining of T2 cells incubated with ras5-14(D12).
The target of assay [5] is HLA-A2 (human). The assay can be described thus: T2 bioassay, isotype-matched control MAb staining of T2 cells incubated with ras8-16(V12).
Assay [6] has as its target ras p21 proteins of the Calu-1 lung carcinoma cell line (K-ras Cys12 mutation) (human) (UniProt P01116). The assay can be described thus: flow cytometry, fixed permeabilised Calu-1 cells, isotype-matched control UPC-10.
In assay [7] the target is ras p21 proteins of the HT-29 colon carcinoma cell line (no known ras codon 12 point mutation) (human) (UniProt P01116). The experiment in a line: flow cytometry, fixed permeabilised HT29 cells, isotype-matched control UPC-10.
Assay [8] concerns the target HLA-A2 (human). The assay can be described thus: T2 bioassay, isotype-matched control MAb staining of T2 cells incubated with ras5-14(C12).
The target of assay [9] is HLA-A2 (human). The experiment in a line: T2 bioassay, isotype-matched control MAb staining of T2 cells incubated with CEA571-579.
For assay [10], the target named is HLA-A2 (human). The experiment in a line: T2 bioassay, isotype-matched control MAb staining of T2 cells incubated with ras5-14(V12).
For assay [11], the target named is HLA-A2 (human). The experiment in a line: T2 bioassay, isotype-matched control MAb staining of T2 cells incubated with ras5-17(D12).
The target of assay [12] is HLA-A2 (human). The experiment in a line: T2 bioassay, isotype-matched control MAb staining of T2 cells incubated with ras5-13(V12).
The target of assay [13] is HLA-A2 (human). The assay can be described thus: T2 bioassay, no peptide, flow cytometry, isotype-matched control MAb staining of T2 cells.
The target in assay [14] is ras p21 proteins of the SW480 colon carcinoma cell line (K-ras Val12 mutation) (human) (UniProt P01116). The assay can be described thus: flow cytometry, fixed permeabilised SW480 cells, isotype-matched control UPC-10.
Assay [15] deals with HLA-A2 (human). The assay can be described thus: T2 bioassay, isotype-matched control MAb staining of T2 cells incubated with ras5-12(V12).
Assay [16] concerns the target HLA-A2 (human). The assay can be described thus: T2 bioassay, isotype-matched control MAb staining of T2 cells incubated with ras5-14(G12).
Assay [17] deals with MHC class I (HLA class I) molecules. The assay can be described thus: flow cytometry, SW480 cells, W6/32.
Assay [18] has the same target. The assay can be described thus: flow cytometry, HT29 cells, W6/32.
For assay [19] the target is unchanged. The experiment in a line: T2 bioassay, no peptide (b2m 3 µg/ml only), flow cytometry, staining of T2 cells with pan class I MAb W6/32; baseline.
For assay [20] the target is unchanged. The assay can be described thus: flow cytometry, Calu-1 cells, W6/32.
Assay [21] deals with ras p21 proteins of the HT-29 colon carcinoma cell line (no known ras codon 12 point mutation) (human) (UniProt P01116). The experiment in a line: flow cytometry, fixed permeabilised HT29 cells, RAS 10 at 1 µg/ml.
Assay [22] has the same target. The assay can be described thus: flow cytometry, fixed permeabilised HT29 cells, RAS 10 at 3 µg/ml.
Assay [23] concerns the target ras p21 proteins of the Calu-1 lung carcinoma cell line (K-ras Cys12 mutation) (human) (UniProt P01116). The experiment in a line: flow cytometry, fixed permeabilised Calu-1 cells, RAS 10 at 1 µg/ml.
Assay [24] shares this target. The experiment in a line: flow cytometry, fixed permeabilised Calu-1 cells, RAS 10 at 10 µg/ml.
Assay [25] deals with ras p21 proteins of the SW480 colon carcinoma cell line (K-ras Val12 mutation) (human) (UniProt P01116). The experiment in a line: flow cytometry, fixed permeabilised SW480 cells, RAS 10 at 1 µg/ml.
The target is the same in assay [26]. The experiment in a line: flow cytometry, fixed permeabilised SW480 cells, RAS 10 at 10 µg/ml.
Assay [27] has as its target ras p21 proteins of the Calu-1 lung carcinoma cell line (K-ras Cys12 mutation) (human) (UniProt P01116). The experiment in a line: flow cytometry, fixed permeabilised Calu-1 cells, RAS 10 at 3 µg/ml.
Assay [28] concerns the target ras p21 proteins of the SW480 colon carcinoma cell line (K-ras Val12 mutation) (human) (UniProt P01116). The experiment in a line: flow cytometry, fixed permeabilised SW480 cells, RAS 10 at 3 µg/ml.
For assay [29], the target named is ras p21 proteins of the HT-29 colon carcinoma cell line (no known ras codon 12 point mutation) (human) (UniProt P01116). The experiment in a line: flow cytometry, fixed permeabilised HT29 cells, RAS 10 at 10 µg/ml.
Assay [30] has as its target ras p21 proteins of the SW480 colon carcinoma cell line (K-ras Val12 mutation) (human) (UniProt P01116). The experiment in a line: sandwich ELISA, RAS 10 capture, Y13-238 detection, SW480 lysate 75 µg protein. A general note: An ELISA detects its analyte on a solid surface through an enzyme-linked reagent.
The target of assay [31] is ras p21 proteins of the HT-29 colon carcinoma cell line (no known ras codon 12 point mutation) (human) (UniProt P01116). The assay can be described thus: sandwich ELISA, RAS 10 capture, Y13-238 detection, HT29 lysate 75 µg protein.
Assay [32] has as its target ras p21 proteins of the Calu-1 lung carcinoma cell line (K-ras Cys12 mutation) (human) (UniProt P01116). The experiment in a line: sandwich ELISA, RAS 10 capture, Y13-238 detection, Calu-1 lysate 7.5 µg protein.
The target of assay [33] is ras p21 proteins of the HT-29 colon carcinoma cell line (no known ras codon 12 point mutation) (human) (UniProt P01116). The experiment in a line: sandwich ELISA, RAS 10 capture, Y13-238 detection, HT29 lysate 7.5 µg protein.
Assay [34] addresses ras p21 proteins of the SW480 colon carcinoma cell line (K-ras Val12 mutation) (human) (UniProt P01116). The assay can be described thus: sandwich ELISA, RAS 10 capture, Y13-238 detection, SW480 lysate 7.5 µg protein.
For assay [35], the target named is ras p21 proteins of the Calu-1 lung carcinoma cell line (K-ras Cys12 mutation) (human) (UniProt P01116). The assay can be described thus: sandwich ELISA, RAS 10 capture, Y13-238 detection, Calu-1 lysate 75 µg protein.
The target of assay [36] is ras p21 proteins of the SW480 colon carcinoma cell line (K-ras Val12 mutation) (human) (UniProt P01116). The experiment in a line: sandwich ELISA, RAS 10 capture of SW480 lysate, rat anti-mouse B7.1 in place of the detection MAb.
The target in assay [37] is ras p21 proteins of the HT-29 colon carcinoma cell line (no known ras codon 12 point mutation) (human) (UniProt P01116). The experiment in a line: sandwich ELISA, RAS 10 capture of HT29 lysate, rat anti-mouse B7.1 in place of the detection MAb.
For assay [38], the target named is ras p21 proteins of the Calu-1 lung carcinoma cell line (K-ras Cys12 mutation) (human) (UniProt P01116). The assay can be described thus: sandwich ELISA, RAS 10 capture of Calu-1 lysate, rat anti-mouse B7.1 in place of the detection MAb.

Regarding “CEA571-579 peptide (from UniProt P06731 571-579)”, the figures for the MFI in assay [1] and in assay [2] were 680 and 991, respectively.

The substance isotype-matched (IgG2a) MAb UPC-10 registered a Proliferation Response (3H-thymidine uptake, cpm) of the CD4+ T cell line of patient 43 to Calu-1 extract (250 µg protein) on wells coated with isotype-matched MAb UPC-10, with BLCL in assay [3] of 7320 cpm.

As for “isotype-matched (IgG2a) MAb UPC-10 (antibody)”, the MFI in assay [4] is 50.8; in assay [5] it was 39.6; in assay [8], 61.4; in assay [9], 48.4; in [10], 38.1; in assay [11], 46.5. The MFI in assay [12] turned out to be 54.1; in [13] it was 84; in assay [15], 44.2; in assay [16], 41.3. The Percent Positive Cells is 1% in assay [6], 11.6% in assay [7] and 5.3% in assay [14].

Consider pan HLA class I MAb W6/32 (antibody), for which the MFI in [17] came to 1180; in assay [18] it was 1310; in assay [19] it was 230; in assay [20], 1620. Also, the Percent Positive Cells worked out at 84.2% in [17], 93.5% in [18] and 93.4% in assay [20].

Take pan-ras MAb, clone RAS 10: the Proliferation Response (3H-thymidine uptake, cpm) of the CD4+ T cell line of patient 43 to Calu-1 extract (250 µg protein) on wells coated with RAS 10, with BLCL in assay [3] came out at 80500 cpm.

Consider pan-ras MAb, clone RAS 10 (antibody), for which the MFI in assay [21] worked out at 233; in assay [22] it was 304; in assay [23] it was 176; in assay [24], 332; in [25] it was 273; in [26], 631. Besides, the results for the MFI in assay [27], in assay [28] and in [29] were 225, 386 and 423, respectively. Besides, the Percent Positive Cells in [21] amounted to 58.6%; in assay [22], 83.4%; in assay [23] it was 59.8%; in assay [24], 90.6%; in assay [25], 67%; in [26], 83.4%. In addition, the Percent Positive Cells is 87.8% in assay [27], 82.8% in [28] and 93.1% in assay [29].

For ras MAb, clone Y13-238 (antibody), the Immunoreactivity (A490) is 1.59 A490 in assay [30]; 1.49 A490 in [31]; 1.29 A490 in assay [32]; 0.99 A490 in assay [33]; 1.5 A490 in assay [34]; 1.5 A490 in assay [35].

For “rat IgG2a anti-mouse B7.1 MAb (antibody)”, the values for the Immunoreactivity (A490) in assay [36], in [37] and in assay [38] were 0.333 A490, 0.283 A490 and 0.299 A490, respectively.

(Values after patent publication US7709002.)
